Assay results from patent US20060257938A1, “Method of screening for drugs that block ligand binding to a lipid binding protein” (priority 2005, published 2006).

Key:
Assay type in all cases: binding
[1] = Probe fluorescence ratio response to arachidonic acid relative to ADIFAB2; details: arachidonic acid; response relative to ADIFAB2
Summary of the method: (§1)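 Fluorescently labeled rat intestinal FABP variants were read at two emission wavelengths, near the unbound maximum (about 420 to 480 nm) and the FFA-bound maximum (about 495 to 580 nm). R = Fλ1/Fλ2 after subtracting probe-free intensity; ΔR = R+agent − R0, normalized to ADIFAB2 (rI-FABP-L72A).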

[2] = Probe fluorescence ratio response to linolenic acid relative to ADIFAB2; details: response relative to ADIFAB2
Summary of the method: as §1

[3] = Probe fluorescence ratio response to linoleic acid relative to ADIFAB2; details: response relative to ADIFAB2
Summary of the method: as §1

[4] = Probe fluorescence ratio response to oleic acid relative to ADIFAB2; details: response relative to ADIFAB2
Summary of the method: as §1

[5] = Probe fluorescence ratio response to palmitic acid relative to ADIFAB2; details: response relative to ADIFAB2
Summary of the method: as §1

B1: 70S, 72A (protein, listed as Rattus norvegicus)
chain: AFDGTWKVDRNENYEKFMEKMGINVVKRKLGAHDNLKLTITQEGNKFTVKESSNFRNIDVVFELGVDFASSAADGTELTGTWTMEGNKLVGKFKRVDNGKELIAVREISGNELIQTYTYEGVEAKRIFKKE
modifications: PEPTIDE (1)...(131) wild-type rat intestinal fatty acid binding protein
[1]
  DR/DR AA: 0.625
[2]
  DR/DR LNA: 0.703
[3]
  DR/DR LA: 0.794
[4]
  DR/DR OA: 0.727
[5]
  DR/DR PA: 0.416

B2: 106I, 72A (protein, listed as Rattus norvegicus)
chain: AFDGTWKVDRNENYEKFMEKMGINVVKRKLGAHDNLKLTITQEGNKFTVKESSNFRNIDVVFELGVDFAYSAADGTELTGTWTMEGNKLVGKFKRVDNGKELIAVIEISGNELIQTYTYEGVEAKRIFKKE
modifications: PEPTIDE (1)...(131) wild-type rat intestinal fatty acid binding protein
[1]
  DR/DR AA: 0.481
[2]
  DR/DR LNA: 0.624
[3]
  DR/DR LA: 0.563
[4]
  DR/DR OA: 0.661
[5]
  DR/DR PA: 0.223

B3: 55L, 72A (protein, listed as Rattus norvegicus)
chain: AFDGTWKVDRNENYEKFMEKMGINVVKRKLGAHDNLKLTITQEGNKFTVKESSNLRNIDVVFELGVDFAYSAADGTELTGTWTMEGNKLVGKFKRVDNGKELIAVREISGNELIQTYTYEGVEAKRIFKKE
modifications: PEPTIDE (1)...(131) wild-type rat intestinal fatty acid binding protein
[1]
  DR/DR AA: 0.863
[2]
  DR/DR LNA: 0.719
[3]
  DR/DR LA: 0.706
[4]
  DR/DR OA: 0.822
[5]
  DR/DR PA: 0.631

B4: 91C, 72A (protein, listed as Rattus norvegicus)
chain: AFDGTWKVDRNENYEKFMEKMGINVVKRKLGAHDNLKLTITQEGNKFTVKESSNFRNIDVVFELGVDFAYSAADGTELTGTWTMEGNKLVCKFKRVDNGKELIAVREISGNELIQTYTYEGVEAKRIFKKE
modifications: PEPTIDE (1)...(131) wild-type rat intestinal fatty acid binding protein
[1]
  DR/DR AA: 1.201
[2]
  DR/DR LNA: 1.420
[3]
  DR/DR LA: 1.371
[4]
  DR/DR OA: 1.470
[5]
  DR/DR PA: 0.794

B5: 14I 38I 72V (protein, listed as Rattus norvegicus)
chain: AFDGTWKVDRNENIEKFMEKMGINVVKRKLGAHDNLKITITQEGNKFTVKESSNFRNIDVVFELGVDFAYSVADGTELTGTWTMEGNKLVGKFKRVDNGKELIAVREISGNELIQTYTYEGVEAKRIFKKE
modifications: PEPTIDE (1)...(131) wild-type rat intestinal fatty acid binding protein
[1]
  DR/DR AA: 0.715
[2]
  DR/DR LNA: 0.926
[3]
  DR/DR LA: 0.862
[4]
  DR/DR OA: 0.398
[5]
  DR/DR PA: 0.844

B6: 38H, 72A (protein, listed as Rattus norvegicus)
chain: AFDGTWKVDRNENYEKFMEKMGINVVKRKLGAHDNLKHTITQEGNKFTVKESSNFRNIDVVFELGVDFAYSAADGTELTGTWTMEGNKLVGKFKRVDNGKELIAVREISGNELIQTYTYEGVEAKRIFKKE
modifications: PEPTIDE (1)...(131) wild-type rat intestinal fatty acid binding protein
[1]
  DR/DR AA: 0.998
[2]
  DR/DR LNA: 0.864
[3]
  DR/DR LA: 0.905
[4]
  DR/DR OA: 0.955
[5]
  DR/DR PA: 0.624

B7: 70W, 72A (protein, listed as Rattus norvegicus)
chain: AFDGTWKVDRNENYEKFMEKMGINVVKRKLGAHDNLKLTITQEGNKFTVKESSNFRNIDVVFELGVDFAWSAADGTELTGTWTMEGNKLVGKFKRVDNGKELIAVREISGNELIQTYTYEGVEAKRIFKKE
modifications: PEPTIDE (1)...(131) wild-type rat intestinal fatty acid binding protein
[1]
  DR/DR AA: 0.349
[2]
  DR/DR LNA: 0.385
[3]
  DR/DR LA: 0.451
[4]
  DR/DR OA: 0.381
[5]
  DR/DR PA: 0.212

B8: 91Y, 72A (protein, listed as Rattus norvegicus)
chain: AFDGTWKVDRNENYEKFMEKMGINVVKRKLGAHDNLKLTITQEGNKFTVKESSNFRNIDVVFELGVDFAYSAADGTELTGTWTMEGNKLVYKFKRVDNGKELIAVREISGNELIQTYTYEGVEAKRIFKKE
modifications: PEPTIDE (1)...(131) wild-type rat intestinal fatty acid binding protein
[1]
  DR/DR AA: 1.273
[2]
  DR/DR LNA: 1.626
[3]
  DR/DR LA: 1.415
[4]
  DR/DR OA: 1.706
[5]
  DR/DR PA: 0.870

B9: 106T, 72A (protein, listed as Rattus norvegicus)
chain: AFDGTWKVDRNENYEKFMEKMGINVVKRKLGAHDNLKLTITQEGNKFTVKESSNFRNIDVVFELGVDFAYSAADGTELTGTWTMEGNKLVGKFKRVDNGKELIAVTEISGNELIQTYTYEGVEAKRIFKKE
modifications: PEPTIDE (1)...(131) wild-type rat intestinal fatty acid binding protein
[1]
  DR/DR AA: 0.250
[2]
  DR/DR LNA: 0.367
[3]
  DR/DR LA: 0.246
[4]
  DR/DR OA: 0.434
[5]
  DR/DR PA: 0.118

B10: 106L, 72A (protein, listed as Rattus norvegicus)
chain: AFDGTWKVDRNENYEKFMEKMGINVVKRKLGAHDNLKLTITQEGNKFTVKESSNFRNIDVVFELGVDFAYSAADGTELTGTWTMEGNKLVGKFKRVDNGKELIAVLEISGNELIQTYTYEGVEAKRIFKKE
modifications: PEPTIDE (1)...(131) wild-type rat intestinal fatty acid binding protein
[1]
  DR/DR AA: 0.383
[2]
  DR/DR LNA: 0.364
[3]
  DR/DR LA: 0.382
[4]
  DR/DR OA: 0.431
[5]
  DR/DR PA: 0.183

B11: 38M 72G 117F (protein, listed as Rattus norvegicus)
chain: AFDGTWKVDRNENYEKFMEKMGINVVKRKLGAHDNLKMTITQEGNKFTVKESSNFRNIDVVFELGVDFAYSGADGTELTGTWTMEGNKLVGKFKRVDNGKELIAVREISGNELIQTFTYEGVEAKRIFKKE
modifications: PEPTIDE (1)...(131) wild-type rat intestinal fatty acid binding protein
[1]
  DR/DR AA: 1.280
[2]
  DR/DR LNA: 0.733
[3]
  DR/DR LA: 0.748
[4]
  DR/DR OA: 0.686
[5]
  DR/DR PA: 0.438

B12: 106H, 72A (protein, listed as Rattus norvegicus)
chain: AFDGTWKVDRNENYEKFMEKMGINVVKRKLGAHDNLKLTITQEGNKFTVKESSNFRNIDVVFELGVDFAYSAADGTELTGTWTMEGNKLVGKFKRVDNGKELIAVHEISGNELIQTYTYEGVEAKRIFKKE
modifications: PEPTIDE (1)...(131) wild-type rat intestinal fatty acid binding protein
[1]
  DR/DR AA: 0.636
[2]
  DR/DR LNA: 0.633
[3]
  DR/DR LA: 0.669
[4]
  DR/DR OA: 0.732
[5]
  DR/DR PA: 0.258

B13: 106S, 72A (protein, listed as Rattus norvegicus)
chain: AFDGTWKVDRNENYEKFMEKMGINVVKRKLGAHDNLKLTITQEGNKFTVKESSNFRNIDVVFELGVDFAYSAADGTELTGTWTMEGNKLVGKFKRVDNGKELIAVSEISGNELIQTYTYEGVEAKRIFKKE
modifications: PEPTIDE (1)...(131) wild-type rat intestinal fatty acid binding protein
[1]
  DR/DR AA: 0.321
[2]
  DR/DR LNA: 0.403
[3]
  DR/DR LA: 0.355
[4]
  DR/DR OA: 0.478
[5]
  DR/DR PA: 0.149

B14: 106N, 72A (protein, listed as Rattus norvegicus)
chain: AFDGTWKVDRNENYEKFMEKMGINVVKRKLGAHDNLKLTITQEGNKFTVKESSNFRNIDVVFELGVDFAYSAADGTELTGTWTMEGNKLVGKFKRVDNGKELIAVNEISGNELIQTYTYEGVEAKRIFKKE
modifications: PEPTIDE (1)...(131) wild-type rat intestinal fatty acid binding protein
[1]
  DR/DR AA: 0.384
[2]
  DR/DR LNA: 0.445
[3]
  DR/DR LA: 0.451
[4]
  DR/DR OA: 0.496
[5]
  DR/DR PA: 0.152

B15: 106A, 72A (protein, listed as Rattus norvegicus)
chain: AFDGTWKVDRNENYEKFMEKMGINVVKRKLGAHDNLKLTITQEGNKFTVKESSNFRNIDVVFELGVDFAYSAADGTELTGTWTMEGNKLVGKFKRVDNGKELIAVAEISGNELIQTYTYEGVEAKRIFKKE
modifications: PEPTIDE (1)...(131) wild-type rat intestinal fatty acid binding protein
[1]
  DR/DR AA: 0.389
[2]
  DR/DR LNA: 0.518
[3]
  DR/DR LA: 0.515
[4]
  DR/DR OA: 0.596
[5]
  DR/DR PA: 0.164

B16: 11Y, 72A (protein, listed as Rattus norvegicus)
chain: AFDGTWKVDRYENYEKFMEKMGINVVKRKLGAHDNLKLTITQEGNKFTVKESSNFRNIDVVFELGVDFAYSAADGTELTGTWTMEGNKLVGKFKRVDNGKELIAVREISGNELIQTYTYEGVEAKRIFKKE
modifications: PEPTIDE (1)...(131) wild-type rat intestinal fatty acid binding protein
[1]
  DR/DR AA: 0.516
[2]
  DR/DR LNA: 0.311
[3]
  DR/DR LA: 0.330
[4]
  DR/DR OA: 0.156
[5]
  DR/DR PA: 0.296

B17: 106V, 72A (protein, listed as Rattus norvegicus)
chain: AFDGTWKVDRNENYEKFMEKMGINVVKRKLGAHDNLKLTITQEGNKFTVKESSNFRNIDVVFELGVDFAYSAADGTELTGTWTMEGNKLVGKFKRVDNGKELIAVVEISGNELIQTYTYEGVEAKRIFKKE
modifications: PEPTIDE (1)...(131) wild-type rat intestinal fatty acid binding protein
[1]
  DR/DR AA: 0.398
[2]
  DR/DR LNA: 0.592
[3]
  DR/DR LA: 0.574
[4]
  DR/DR OA: 0.657
[5]
  DR/DR PA: 0.191
